Source: the DeepSol protein solubility set

Test: soluble on expression in E. coli; label from the status in PepcDB or PDB records

MLNTILVALDGSEIAERVIQTLGYLVLSPNTNVILCHVFPAPESEIELPADRPQPDLPNFSYFNIDKQMQSYQERLSVKSELELVMGDPADEIIRLANIYKADLVVIGSRGLTGMNRIVQGSVSTQVMEAANCSVLVVKPARN
soluble on expression in E. coli: not soluble

VRSRNGGATKIVREHYLRSDIPCLSRSCTKCPQIVVPDAQNELPKFILSDSPLELSAPIGKHYVVLDTNVVLQAIDLLENPNCFFDVIVPQIVLDEVRNKSYPVYTRLRTLCRDSDDHKRFIVFHNEFSEHTFVERLPNETINDRNDRAIRKTCQWYSEHLKPYDINVVLVTNDRLNREAATKEVESNIITKSLVQYIELLPNADDIRDSIPQMDSFDKDLERDTFSDFTFPEYYSTARVMGGLKNGVLYQGNIQISEYNFLEGSVSLPRFSKPVLIVGQKNLNRAFNGDQVIVELLPQSEWKAPSSIVLDSEHFDVNDNPDIEAGDDDDNNESSSNTTVISDKQRRLLAKDAMIAQRSKKIQPTAKVVYIQRRSWRQYVGQLAPSSVDPQSSSTQNVFVILMDKCLPKVRIRTRRAAELLDKRIVISIDSWPTTHKYPLGHFVRDLGTIESAQAETEALLLEHDVEYRPFSKKVLECLPAEGHDWKAPTKLDDPEAVSKDPLLTKRKDLRDKLICSIDPPGCVDINDALHAKKLPNGNWEVGVHIADVTHFVKPGTALDAEGAARGTSVYLVDKRIDMLPMLLGTDLCSLKPYVDRFAFSVIWELDDSANIVNVNFMKSVIRSREAFSYEQAQLRIDDKTQNDELTMGMRALLKLSVKLKQKRLEAGALNLASPEVKVHMDSETSDPNEVEIKKLLATNSLVEEFMLLANISVARKIYDAFPQTAMLRRHAAPPSTNFEILNEMLNTRKNMSISLESSKALADSLDRCVDPEDPYFNTLVRIMSTRCMMAAQYFYSGAYSYPDFRHYGLAVDIYTHFTSPIRRYCDVVAHRQLAGAIGYEPLSLTHRDKNKMDMICRNINRKHRNAQFAGRASIEYYVGQVMRNNESTETGYVIKVFNNGIVVLVPKFGVEGLIRLDNLTEDPNSAAFDEVEYKLTFVPTNSDKPRDVYVFDKVEVQVRSVMDPITSKRKAELLLK
soluble on expression in E. coli: soluble

MPLTPADVHNVAFSKPPIGKRGYNEDEVDQFLDLVEDTLAEIQEENDDLRQQIEELQSSPRAEGSKPAAAPAAVSSLDETKLRKEIEAKVAAEYRAKLADAQEATERAQAELKMAREEADSAKAAAKKAEEAARAAASAATKAQPVAAVAPVGTDGGSATADTHLQAAKVLSMAQEMADRLTAEADSNSKSMLSEARAAAEKQVSDAEAKAKTTLADARQKAEKQLADADARSKALVSDAEKKSAQTLSDANTRAEAQVRQAEEKANALQADAERKHTEIMATVKQQQNALESRISELRTFEREYRTRLKTLLQTQLDELESRGTSAPEDKNV
soluble on expression in E. coli: not soluble

MGSDKIHHHHHHMKGQSKKALTKKRIEEAALSLFREQGYDSTTVQEITAKAQVAKGTFFNYFPTKESIMRSLAEDRLHSVSVYMEQRHIQSLPILKKIRTYLSYLLEEYDSHPKLTVQIWRHVVEFEEMILSHWVVLLEEAKERGELSEDFPIHVWSHIIHSHVCYGLQMSHLAPTKAQLLAKVMPLLEESLSAIIQKRGNSAMKKLVVLGGGYGGMRILQRLLPNDLPSDWEITLVDRLPYHCLKTEYYALAAGTASDHHLRVSFPEDPRLSTRYGSVSSIDLASKTVLFEEGEPLTYDTLIIGLGCEDKYHGVPGAKEHTYSIQSMEATRRTYEALNNVRPEGVVTIVGAGLSGVELASELRESRPDLTIKLLDRGDIILSMFPRRLSNYVQNWFIDHGVDIINKSNVTKVEEGAVYNHDERIESDAIIWTAGIQPNVVVRNLDVEKDQQGRVVLTPHHHLPTDEDVFVVGDCASLPHAPSAQLAEGQAEQIVTVLKKRWNNESLPDEFPRIKLKGVLGSLGKKHGFGLMGERTLIGRVPRVLKSGVLWMYKYHSG
soluble on expression in E. coli: not soluble

MGSDKIHHHHHHMSDFFIETTKADKVLPTNSRPKFFAFGIPSYTNLGDQAVSLAQRKYIENEFPEYQYIEILEDDNDEGIEAVKKIITSQDIVSFVGGGNMGSLYTNHEAARRKVFSTFVNNLTISFPQSIHFEDTPSGLKEQKLSQEAYGKNRHLFLIARDAQSYHRMQTTFDNQVLFTPDMVLYFKASHYDFKRSGALFVLRHDGEKVVGDSLIDSMKKMLDNNRPLKRTDTVLDTVKRITPINREKLFKEELELFAHQEIVITDRWHAMVFSVLTGTPCLLFGNSYGKGKHAYFDWLEHINWIAYTDEEDLDRIDQQIQRLIKTKEHAYDIRPDFKQLHDLIKLHSKK
soluble on expression in E. coli: not soluble

MSLDQAIRRNPNVPVVVRGWLHKQDSSGMRLWKRRWFVLADYCLFYYKDSREEAVLGSIPLPSYVISPVAPEDRISRKYSFKAVHTGMRALIYNSSTAGSQAEQSGMRTYYFSADTQEDMNAWVRAMNQAAQVLSRSSLKRDMEKVERQAVPQANHTEGHHHHHH
soluble on expression in E. coli: soluble
